Measured values reported in US20240083986A1 (published 2024).
One block for each binder: values may come before it.

Experiments:
[1] = molecular target: T1, Alder (Aln g 1, MyBiosource, Cat #MBS1041484) (Alder, UniProt P38948 2-160, limits assumed); assay: SPR, mAb captured via anti-hFc, 25 C
T1 construct: Bought reagent
T1 sequence (looked up): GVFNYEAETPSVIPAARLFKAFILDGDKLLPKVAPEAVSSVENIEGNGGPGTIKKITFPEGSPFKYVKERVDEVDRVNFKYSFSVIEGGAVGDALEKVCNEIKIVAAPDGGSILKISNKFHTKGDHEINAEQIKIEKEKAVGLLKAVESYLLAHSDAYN

[2] = molecular target: T2, CHO produced recombinant Bet v 1 containing a S85A mutation with a C-terminal myc-myc hexahistidine tag … (Betula verrucosa (birch)); assay: SPR, mAb captured via anti-hFc, 25 C
T2 chain: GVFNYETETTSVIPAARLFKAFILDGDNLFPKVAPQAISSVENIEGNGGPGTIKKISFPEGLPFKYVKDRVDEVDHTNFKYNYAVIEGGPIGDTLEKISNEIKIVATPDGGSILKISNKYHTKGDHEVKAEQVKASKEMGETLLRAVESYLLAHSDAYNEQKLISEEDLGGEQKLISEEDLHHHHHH

[3] = molecular target: T3, Apple (Mal d 1, MyBiosource, Cat #MBS1224919) (Apple, UniProt P43211 2-159, limits assumed); assay: SPR, mAb captured via anti-hFc, 25 C;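 further: biacore 4000 SPR, related allergen binding to purified anti-Bet v 1 mAbs, HBS-ET running buffer pH 7.4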
T3 construct: Bought reagent
T3 sequence (looked up): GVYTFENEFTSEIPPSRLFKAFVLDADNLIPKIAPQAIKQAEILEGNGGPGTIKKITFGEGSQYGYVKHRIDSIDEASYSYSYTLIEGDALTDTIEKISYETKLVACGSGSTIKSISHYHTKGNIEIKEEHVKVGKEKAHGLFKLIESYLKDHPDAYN

[4] = molecular target: T4, Celery (Api g 1, MyBiosource, Cat #MBS1171376) (Celery, UniProt P49372 1-154, limits assumed); assay: SPR, mAb captured via anti-hFc, 25 C;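 further: Anti-Bet v 1 monoclonal antibodies probed on a Biacore 4000 in HBS-ET buffer at pH 7.4, rate constants fitted to a 1:1 model with mass transport limitation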
T4 construct: Bought reagent
T4 sequence (looked up): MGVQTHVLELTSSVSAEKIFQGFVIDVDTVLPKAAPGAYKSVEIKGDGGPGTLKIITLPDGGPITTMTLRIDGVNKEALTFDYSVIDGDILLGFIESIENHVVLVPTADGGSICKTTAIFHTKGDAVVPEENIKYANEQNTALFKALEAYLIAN

[5] = molecular target: T5, European Hornbeam (Car b 1 isoform 1A & 1B, MyBiosource, Cat #MBS1200018) (European Hornbeam, UniProt P38949 2-160); assay: SPR, mAb captured via anti-hFc, 25 C
T5 construct: Bought reagent
T5 sequence (looked up): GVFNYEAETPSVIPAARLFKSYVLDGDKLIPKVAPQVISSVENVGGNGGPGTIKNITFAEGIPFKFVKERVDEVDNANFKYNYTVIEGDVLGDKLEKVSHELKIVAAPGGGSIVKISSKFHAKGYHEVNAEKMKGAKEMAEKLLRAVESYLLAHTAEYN

[6] = molecular target: T6, European Hornbeam (Car b 1 isoform 2, MyBiosource, Cat #MBS1043940) (European Hornbeam, UniProt P38950 2-160, limits assumed); assay: SPR, mAb captured via anti-hFc, 25 C;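 further: related allergen binding to captured purified monoclonal antibodies, rate constants fitted to a one-to-one model with mass transport limitation, KD and t½ calculated from the rates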
T6 construct: Bought reagent
T6 sequence (looked up): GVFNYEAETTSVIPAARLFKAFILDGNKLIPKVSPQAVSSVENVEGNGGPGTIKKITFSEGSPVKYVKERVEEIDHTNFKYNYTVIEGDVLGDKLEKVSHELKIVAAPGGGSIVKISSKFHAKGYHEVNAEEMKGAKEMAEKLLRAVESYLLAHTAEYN

[7] = molecular target: T2, CHO produced recombinant Bet v 1 …; assay: SPR, mAb captured via anti-hFc, 37 C

100 nM Analyte Bound (RU) [1]: 2 RU
binding result [1]: no binding (tested: 100 nM)
100 nM natural Bet v 1- MMH Bound (RU) [2]: 55 RU
Kd [2]: 11.7 nM
koff [2]: 0.00117 s⁻¹
kon [2]: 100000 M⁻¹ s⁻¹
t½ [2]: 9.9 min
100 nM Analyte Bound (RU) [3]: -1 RU
100 nM Analyte Bound (RU) [4]: 0 RU
binding result [4]: no binding (tested: 100 nM)
100 nM Analyte Bound (RU) [5]: 0 RU
binding result [5]: no binding (tested: 100 nM)
100 nM Analyte Bound (RU) [6]: 1 RU
binding result [6]: no binding (tested: 100 nM)
100 nM natural Bet v 1-MHH Bound (RU) [7]: 76 RU
Kd [7]: 16.9 nM
koff [7]: 0.00428 s⁻¹
kon [7]: 253000 M⁻¹ s⁻¹
t½ [7]: 2.7 min
B2: H4H17067P2 (antibody, human IgG4, V domains shown)
VH: EVQLVQSGAEVKKPGESLKISCSGSGYRFTNYWIAWVRQMPGKGLEWMGLIHPDDSDIRYSPSFQGQVTFSVDKSINTAYLQWSSLKASDTAMYYCTRQDGILWSHNAWFDPWGQGTLVTVSS
VL: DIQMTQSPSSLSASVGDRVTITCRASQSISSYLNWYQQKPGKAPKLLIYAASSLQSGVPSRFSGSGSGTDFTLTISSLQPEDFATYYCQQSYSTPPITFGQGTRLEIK
notes: Fully human antibody with human IgG4 Fc (H4H prefix)

100 nM Analyte Bound (RU) [1]: 59 RU
Kd [1]: 45 nM
koff [1]: 0.00238 s⁻¹
kon [1]: 52900 M⁻¹ s⁻¹
t½ [1]: 4.8 min
100 nM natural Bet v 1- MMH Bound (RU) [2]: 63 RU
Kd [2]: 5.61 nM
koff [2]: 0.00105 s⁻¹
kon [2]: 187000 M⁻¹ s⁻¹
t½ [2]: 11 min
100 nM Analyte Bound (RU) [3]: 0 RU
binding result [3]: no binding (tested: 100 nM)
100 nM Analyte Bound (RU) [4]: 0 RU
binding result [4]: no binding (tested: 100 nM)
100 nM Analyte Bound (RU) [5]: 126 RU
Kd [5]: 13.8 nM
koff [5]: 0.00111 s⁻¹
kon [5]: 80400 M⁻¹ s⁻¹
t½ [5]: 10 min
100 nM Analyte Bound (RU) [6]: 160 RU
Kd [6]: 13.1 nM
koff [6]: 0.00517 s⁻¹
kon [6]: 395000 M⁻¹ s⁻¹
t½ [6]: 2.2 min
100 nM natural Bet v 1-MHH Bound (RU) [7]: 71 RU
Kd [7]: 14.6 nM
koff [7]: 0.00406 s⁻¹
kon [7]: 278000 M⁻¹ s⁻¹
t½ [7]: 2.8 min
B5: H4H17031P (antibody, human IgG4, V domains shown)
VH: QVQLQQWGAGLLKPSETLSLTCVVYGESFGNYHWNWIRQSPGKRLEWIGEINQNGHTNYNPSLKSRVTISVDTSKIQFSLRLNSVTAADTAVYFCARGHNYVNSYFGLDVWGQGTTVTVSS
VL: EIVMTQSPATLSVSPGERATLSCRTSQSVSISLAWYQRKPGQAPRLLIFGSSTRATGVPARFSGSGSGTEFTLTISSLQSEDFAVYYCQQYNNWPYTFGQGTKLEIK
notes: as for B2

100 nM Analyte Bound (RU) [1]: 0 RU
binding result [1]: no binding (tested: 100 nM)
100 nM natural Bet v 1- MMH Bound (RU) [2]: 60 RU
Kd [2]: 6.23 nM
koff [2]: 0.000498 s⁻¹
kon [2]: 80000 M⁻¹ s⁻¹
t½ [2]: 23 min
100 nM Analyte Bound (RU) [3]: -1 RU
100 nM Analyte Bound (RU) [4]: 0 RU
binding result [4]: no binding (tested: 100 nM)
100 nM Analyte Bound (RU) [5]: 5 RU
binding result [5]: no binding (tested: 100 nM)
100 nM Analyte Bound (RU) [6]: 5 RU
binding result [6]: no binding (tested: 100 nM)
100 nM natural Bet v 1-MHH Bound (RU) [7]: 84 RU
Kd [7]: 14.3 nM
koff [7]: 0.00232 s⁻¹
kon [7]: 162000 M⁻¹ s⁻¹
t½ [7]: 5 min
B6: H4H17045P2 (antibody, human IgG4, V domains shown)
VH: EVQLVESGGGLVQPGVSLRLSCVASGFTFSNYDITWIRQIPGKGLEWVSRISGSGGSTYFADSVKGRFIISRDNSKNTVYMQMNSLRAEDSAVYYCARRDSVLFSMNSWLDPWGQGTLVTVSS
VL: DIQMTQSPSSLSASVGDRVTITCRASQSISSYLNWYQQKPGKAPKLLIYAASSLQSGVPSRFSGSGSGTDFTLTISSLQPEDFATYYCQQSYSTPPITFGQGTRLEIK
notes: as for B2

More lines, now with the values behind:

B1: H4H17028P (antibody, human IgG4, V domains shown)
VH: QVQLVESGGGVVQPGRSLRLSCAASGFTFSRYAIHWVRQAPGKGLEWVAVISYDGDDKYYGDSVKGRFTISRDNSKTMVYLHMNSLRTEDTAVYYCAKDGYSLYGKDYFDYWGQGTLVTVSS
VL: EIVLTQSPGTLPLSPGERATLSCRASQSITNSYLAWYQQKPDQAPRLLIYGASSRATGIPDRFSGSESGTDFTLTISRLEPEDFAVYYCQQYVRSPWTFGQGTKVEIK
notes: as for B2
100 nM Analyte Bound (RU) [1]: 16 RU
Kd [1]: 36.7 nM
koff [1]: 0.0019 s⁻¹
kon [1]: 51700 M⁻¹ s⁻¹
t½ [1]: 6.1 min
100 nM natural Bet v 1- MMH Bound (RU) [2]: 71 RU
Kd [2]: 0.854 nM
koff [2]: 0.000693 s⁻¹
kon [2]: 811000 M⁻¹ s⁻¹
t½ [2]: 17 min
100 nM Analyte Bound (RU) [3]: 1 RU
binding result [3]: no binding (tested: 100 nM)
100 nM Analyte Bound (RU) [4]: 1 RU
binding result [4]: no binding (tested: 100 nM)
100 nM Analyte Bound (RU) [5]: 159 RU
Kd [5]: 2.43 nM
koff [5]: 0.000511 s⁻¹
kon [5]: 210000 M⁻¹ s⁻¹
t½ [5]: 23 min
100 nM Analyte Bound (RU) [6]: 95 RU
Kd [6]: 45 nM
koff [6]: 0.00437 s⁻¹
kon [6]: 97100 M⁻¹ s⁻¹
t½ [6]: 2.6 min
100 nM natural Bet v 1-MHH Bound (RU) [7]: 77 RU
Kd [7]: 2.32 nM
koff [7]: 0.00235 s⁻¹
kon [7]: 1.01e+06 M⁻¹ s⁻¹
t½ [7]: 4.9 min

B3: H4H17033P (antibody, human IgG4, V domains shown)
VH: QVQLVQSGAEVKKPGASVKVSCKASGYTFAAHYMHWVRQAPGQGLEWMGWINTYTGGTNYGQKFQGRVTMTRDTSITTAYMELSRLRSDDTAVYYCARDRRNWNFVFEYWGQGTLVTVSS
VL: DIQMTQSPSSLSASVGDRVTISCRASQNIKNYLNWYQQKPGKAPKLLIYEASNLQSGAPSRFSGSGSGTDFTLTISSLEPEDFATYYCQQSFSIPWTFGQGTKVEIK
notes: as for B2
100 nM Analyte Bound (RU) [1]: 3 RU
binding result [1]: no binding (tested: 100 nM)
100 nM natural Bet v 1- MMH Bound (RU) [2]: 67 RU
Kd [2]: 0.768 nM
koff [2]: 0.000415 s⁻¹
kon [2]: 540000 M⁻¹ s⁻¹
t½ [2]: 28 min
100 nM Analyte Bound (RU) [3]: 1 RU
binding result [3]: no binding (tested: 100 nM)
100 nM Analyte Bound (RU) [4]: 39 RU
Kd [4]: 167 nM
koff [4]: 0.0791 s⁻¹
kon [4]: 475000 M⁻¹ s⁻¹
t½ [4]: 0.2 min
100 nM Analyte Bound (RU) [5]: 0 RU
binding result [5]: no binding (tested: 100 nM)
100 nM Analyte Bound (RU) [6]: 111 RU
Kd [6]: 33.4 nM
koff [6]: 0.0447 s⁻¹
kon [6]: 1.34e+06 M⁻¹ s⁻¹
t½ [6]: 0.3 min
100 nM natural Bet v 1-MHH Bound (RU) [7]: 79 RU
Kd [7]: 1.34 nM
koff [7]: 0.00118 s⁻¹
kon [7]: 883000 M⁻¹ s⁻¹
t½ [7]: 9.8 min

B4: H4H17038P2 (antibody, human IgG4 S228P, kappa, V domains shown)
VH: EVQLVESGGDLVQPGGSLRLSCAASGFTFSSYEMNWVRQAPGKGLEWVSFISDSSSNIYYADSVKGRFTISRDNAKKSLYLQMTSLRAEDTAVYYCAREAIGSTSFDNWGQGTLVTVSS
VL: EIVMTQSPATLSVSPGERATLSCRASQSVSSSLAWYQQKPGQAPRRLIYSASTRATGIPARFSGSGSGTEFTLTISSLQSEDFAIYYCHQYNNWPLTFGGGTKVEIKR
notes: human IgG4 Fc; also called REGN5714; MAB3
100 nM Analyte Bound (RU) [1]: 2 RU
binding result [1]: no binding (tested: 100 nM)
100 nM natural Bet v 1- MMH Bound (RU) [2]: 63 RU
Kd [2]: 9.98 nM
t½ [2]: 1.8 min
100 nM Analyte Bound (RU) [3]: -1 RU
100 nM Analyte Bound (RU) [4]: -1 RU
100 nM Analyte Bound (RU) [5]: 105 RU
Kd [5]: 41.4 nM
t½ [5]: 1.9 min
Kd [6]: 50.5 nM
t½ [6]: 1.8 min
100 nM natural Bet v 1-MHH Bound (RU) [7]: 56 RU
Kd [7]: 35.6 nM
t½ [7]: 0.39 min
